Measurements reported in publication doi:10.1101/2020.10.16.20213991 (medRxiv, 2020).

Target: the molecule itself
Test: SEC

B1: cowpea chlorotic mottle virus (CCMV) coat protein (natural protein)
chain: MSTVGTGKLTRAQRRAAARKNKRNTRVVQPVIVEPIASGQGKAIKAWTGYSVSKWTASCAAAEAKVTSAITISLPNELSSERNKQLKVGRVLLWLGLLPSVSGTVKSCVTETQTTAAASFQVALAVADNSKDVVAAMYPEAFKGITLEQLTADLTIYLYSSAALTEGDVIVHLEVEHVRPTFDDSFTPVY
  binding result: binds
